Results: patent US20230167164A1

Molecular target: IFN-γ receptor (UniProt P15260)
Test: cell-based or functional assay

IFN-γ receptor, sequence (P15260 18-489 limits assumed, chain 1 of 2): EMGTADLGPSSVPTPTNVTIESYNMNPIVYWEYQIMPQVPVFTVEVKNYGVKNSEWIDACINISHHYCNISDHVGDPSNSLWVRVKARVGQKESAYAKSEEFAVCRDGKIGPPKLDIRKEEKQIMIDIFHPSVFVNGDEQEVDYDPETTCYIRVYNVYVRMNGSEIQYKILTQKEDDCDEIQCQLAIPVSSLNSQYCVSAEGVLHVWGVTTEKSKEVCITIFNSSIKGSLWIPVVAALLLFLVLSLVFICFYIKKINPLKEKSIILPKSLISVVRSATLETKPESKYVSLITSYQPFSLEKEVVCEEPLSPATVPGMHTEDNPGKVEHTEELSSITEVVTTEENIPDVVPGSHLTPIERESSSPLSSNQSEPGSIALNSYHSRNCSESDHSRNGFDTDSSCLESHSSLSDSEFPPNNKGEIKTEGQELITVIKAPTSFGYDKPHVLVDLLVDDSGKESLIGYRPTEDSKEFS
IFN-γ receptor, sequence (P38484 22-337 limits assumed, chain 2 of 2, further chain): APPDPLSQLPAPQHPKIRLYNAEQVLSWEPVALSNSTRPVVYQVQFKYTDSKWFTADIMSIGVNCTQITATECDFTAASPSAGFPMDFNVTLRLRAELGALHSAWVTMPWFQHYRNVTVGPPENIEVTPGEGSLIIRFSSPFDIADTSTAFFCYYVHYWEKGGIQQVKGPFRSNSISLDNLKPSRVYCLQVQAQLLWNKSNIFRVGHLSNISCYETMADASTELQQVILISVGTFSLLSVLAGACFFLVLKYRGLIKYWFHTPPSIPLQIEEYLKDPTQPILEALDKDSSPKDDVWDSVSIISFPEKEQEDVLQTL

PD-L1 expression induced on HEK-CD4-IFN-γ cells, MFI of anti-PD-L1 APC staining: 67 MFI | PD-L1 expression induced on HEK-IFN-γ cells, MFI of anti-PD-L1 APC staining: 75 MFI
Substance: recombinant IFN-γ (free state) (from UniProt P01579 24-166) (ligand)
